# Assay results as given in the supplement of paper PMC10567573.
# B1: CDC14A (parent)
# chain: LWVQGDIFRSKLKNRPSSEGSINK
# Variants of: B1
# Assay: protein stability index of a GFP-peptide fusion (GPS, HEK-293T) (PSI 1-6); higher = more stable
# Conditions: c terminus: a fixed tail appended
# 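Further: lentivirally expressed fusions sorted by FACS into six bins by GFP to DsRed ratio, PSI derived from sequencing read proportions per bin multiplied by bin number.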
row,Variant,protein stability index
1,LWVQGDIFRSKLKNRPSSEGAINK [S21A],2.77
2,LWVQGDIFRSKLKNRPSSEGHINK [S21H],2.41
3,LWVQGDIFRSKLKNRPSSEGGINK [S21G],2.84
4,LWVQGDIFRSKLKNRPSSEGLINK [S21L],2.24
5,LWVQGDIFRSKLKNRPSSEGPINK [S21P],3.06
6,LWVQGDIFRSKLKNRPSSEGKINK [S21K],2.42
7,LWVQGDIFRSKLKNRPSSEGFINK [S21F],2.46
8,LWVQGDIFRSKLKNRPSSEGTINK [S21T],3.13
9,LWVQGDIFRSKLKNRPSSEGRINK [S21R],1.73
10,LWVQGDIFRSKLKNRPSSEGYINK [S21Y],2.22
11,LWVQGDIFRSKLKNRPSSEGDINK [S21D],4.21
12,LWVQGDIFRSKLKNRPSSEGCINK [S21C],2.64
13,LWVQGDIFRSKLKNRPSSEGEINK [S21E],3.65
14,LWVQGDIFRSKLKNRPSSEGIINK [S21I],2.08
15,LWVQGDIFRSKLKNRPSSEGMINK [S21M],2.15
16,LWVQGDIFRSKLKNRPSSEGVINK [S21V],2.41
17,LWVQGDIFRSKLKNRPSSEGQINK [S21Q],3.15
18,LWVQGDIFRSKLKNRPSSEGNINK [S21N],2.18
19,LWVQGDIFRSKLKNRPSSEGWINK [S21W],2.42
20,LWVQGDIFRSKLKNRPSSEESINK [G20E],3.9
21,LWVQGDIFRSKLKNRPSSEHSINK [G20H],2.74
22,LWVQGDIFRSKLKNRPSSEISINK [G20I],2.61
23,LWVQGDIFRSKLKNRPSSELSINK [G20L],2.69
24,LWVQGDIFRSKLKNRPSSERSINK [G20R],2.76

row,Variant,protein stability index
1,LWVQGDIFRSKLKNRPSSEWSINK [G20W],2.03
2,LWVQGDIFRSKLKNRPSSECSINK [G20C],2.82
3,LWVQGDIFRSKLKNRPSSEASINK [G20A],2.06
4,LWVQGDIFRSKLKNRPSSEFSINK [G20F],2.3
5,LWVQGDIFRSKLKNRPSSEQSINK [G20Q],2.61
6,LWVQGDIFRSKLKNRPSSESSINK [G20S],2.58
7,LWVQGDIFRSKLKNRPSSENSINK [G20N],2.76
8,LWVQGDIFRSKLKNRPSSEMSINK [G20M],2.73
9,LWVQGDIFRSKLKNRPSSEVSINK [G20V],2.23
10,LWVQGDIFRSKLKNRPSSETSINK [G20T],2.85
11,LWVQGDIFRSKLKNRPSSEDSINK [G20D],2.64
12,LWVQGDIFRSKLKNRPSSEPSINK [G20P],2.04
13,LWVQGDIFRSKLKNRPSSEKSINK [G20K],3.44
14,LWVQGDIFRSKLKNRPSSWGSINK [E19W],1.88
15,LWVQGDIFRSKLKNRPSSYGSINK [E19Y],1.58
16,LWVQGDIFRSKLKNRPSSRGSINK [E19R],2.35
17,LWVQGDIFRSKLKNRPSSIGSINK [E19I],2.24
18,LWVQGDIFRSKLKNRPSSGGSINK [E19G],2.24
19,LWVQGDIFRSKLKNRPSSSGSINK [E19S],2.29
20,LWVQGDIFRSKLKNRPSSHGSINK [E19H],2.36
21,LWVQGDIFRSKLKNRPSSAGSINK [E19A],2.33
22,LWVQGDIFRSKLKNRPSSLGSINK [E19L],1.97
23,LWVQGDIFRSKLKNRPSSFGSINK [E19F],1.7
24,LWVQGDIFRSKLKNRPSSKGSINK [E19K],2.21

row,Variant,protein stability index
1,LWVQGDIFRSKLKNRPSSTGSINK [E19T],1.88
2,LWVQGDIFRSKLKNRPSSPGSINK [E19P],1.95
3,LWVQGDIFRSKLKNRPSSNGSINK [E19N],2.48
4,LWVQGDIFRSKLKNRPSSVGSINK [E19V],2.17
5,LWVQGDIFRSKLKNRPSSDGSINK [E19D],2.88
6,LWVQGDIFRSKLKNRPSSCGSINK [E19C],2.44
7,LWVQGDIFRSKLKNRPSSMGSINK [E19M],2.02
8,LWVQGDIFRSKLKNRPSSQGSINK [E19Q],2.49
9,LWVQGDIFRSKLKNRPLSEGSINK [S17L],2.63
10,LWVQGDIFRSKLKNRPDSEGSINK [S17D],2.85
11,LWVQGDIFRSKLKNRPASEGSINK [S17A],3.12
12,LWVQGDIFRSKLKNRPTSEGSINK [S17T],2.82
13,LWVQGDIFRSKLKNRPWSEGSINK [S17W],2.17
14,LWVQGDIFRSKLKNRPKSEGSINK [S17K],2.45
15,LWVQGDIFRSKLKNRPGSEGSINK [S17G],2.87
16,LWVQGDIFRSKLKNRPMSEGSINK [S17M],1.83
17,LWVQGDIFRSKLKNRPYSEGSINK [S17Y],2.08
18,LWVQGDIFRSKLKNRPESEGSINK [S17E],2.43
19,LWVQGDIFRSKLKNRPISEGSINK [S17I],2.08
20,LWVQGDIFRSKLKNRPFSEGSINK [S17F],1.66
21,LWVQGDIFRSKLKNRPNSEGSINK [S17N],3.48
22,LWVQGDIFRSKLKNRPCSEGSINK [S17C],2.89
23,LWVQGDIFRSKLKNRPHSEGSINK [S17H],2.77
24,LWVQGDIFRSKLKNRPQSEGSINK [S17Q],2.05

row,Variant,protein stability index
1,LWVQGDIFRSKLKNRPVSEGSINK [S17V],2.47
2,LWVQGDIFRSKLKNRPPSEGSINK [S17P],2.41
3,LWVQGDIFRSKLPNRPSSEGSINK [K13P],3.01
4,LWVQGDIFRSKLANRPSSEGSINK [K13A],2.38
5,LWVQGDIFRSKLHNRPSSEGSINK [K13H],2.55
6,LWVQGDIFRSKLQNRPSSEGSINK [K13Q],2.69
7,LWVQGDIFRSKLMNRPSSEGSINK [K13M],1.93
8,LWVQGDIFRSKLLNRPSSEGSINK [K13L],2.94
9,LWVQGDIFRSKLSNRPSSEGSINK [K13S],2.54
10,LWVQGDIFRSKLGNRPSSEGSINK [K13G],2.05
11,LWVQGDIFRSKLRNRPSSEGSINK [K13R],2.67
12,LWVQGDIFRSKLVNRPSSEGSINK [K13V],2.41
13,LWVQGDIFRSKLCNRPSSEGSINK [K13C],2.2
14,LWVQGDIFRSKLINRPSSEGSINK [K13I],2.15
15,LWVQGDIFRSKLNNRPSSEGSINK [K13N],2.31
16,LWVQGDIFRSKLENRPSSEGSINK [K13E],2.53
17,LWVQGDIFRSKLTNRPSSEGSINK [K13T],2.7
18,LWVQGDIFRSKLDNRPSSEGSINK [K13D],2.87
19,LWVQGDIFRSKLFNRPSSEGSINK [K13F],1.68
20,LWVQGDIFRSKLYNRPSSEGSINK [K13Y],1.89
21,LWVQGDIFRSKWKNRPSSEGSINK [L12W],2.42
22,LWVQGDIFRSKYKNRPSSEGSINK [L12Y],2.61
